Laboratory results: patent publication US20200179497A1
Residue numbers refer to the chain shown, from its start.

Biological target: IVIg (Octagam)
Assay: cell-based or functional assay

B1: pCART204 (enzyme)
chain: MDDYQRNATEAYAKEVPHQITSVWTKGVTPPEQFRYNNEDVIHAPYLAHQGWYDITKAFDGKDNLLCGAATAGNMLHWWFDQNKTEIEAYLSKHPEKQKIIFNNQELFDLKAAIDTKDSQTNSQLFNYFRDKAFPNLSARQLGVMPDLVLDMFINGYYLNVFKTQSTDVNRPYQDKDKRGGIFDAVFTRGDQTTLLTARHDLKNKGLNDISTIIKQELTEGRALALSHTYANVSISHVINLWGADFNAEGNLEAIYVTDSDANASIGMKKYFVGINAHGHVAISAKKIEGENIGAQVLGLFTLSSGKDIWQKLSGGGHHHHHH
enzyme concentration giving an intense scIgG band on SDS-PAGE: 0.94 ng/mL

B2: pCART229 (enzyme)
chain: MDDYQRNATEAYAKEVPHQITSVWTKGVTPPEQFTQGEDVIHAPYLAHQGWYDITKAFDGKDNLLCGAATAGNMLHWWFDQNKTEIEAYLSKHPEKQKIIFRNQELFDLKAAIDTKDSQTNSQLFNYFRDKAFPNLSARQLGVMPDLVLDMFINGYYLNVFKTQSTDVNRPYQDKDKRGGIFDAVFTRGNQTTLLTARHDLKNKGLNDISTIIKQELTEGRALALSHTYANVSISHVINLWGADFNAEGNLEAIYVTDSDANASIGMKKYFVGINAHGHVAISAKKIEGENIGAQVLGLFTLSSGKDIWQKLSGGGHHHHHH
Conc. of enzyme, 1st IgG heavy chain, IgG to scIgG (gel): 1900 ng/mL | Conc. of enzyme, 2nd IgG heavy chain, scIgG to F(ab')2 (gel): 7500 ng/mL

B3: pCART210 (enzyme)
chain: B2 chain with H48N, A111E, D114R, N126E, N135Y, N169K, Q215E, E219K, A276K, S313N
enzyme concentration giving mainly scIgG on SDS-PAGE: 0.9 ng/mL

B4: pCART208 (enzyme)
chain: B2 chain with F101I, N190D
enzyme concentration giving a dominating F(ab')2 band on SDS-PAGE: 1.9 ng/mL | enzyme concentration giving mainly scIgG on SDS-PAGE: 0.5 ng/mL

B5: pCART203 (enzyme)
chain: B2 chain with R102N, N190D
enzyme concentration giving an intense scIgG band on SDS-PAGE: 0.94 ng/mL | enzyme concentration giving mainly scIgG on SDS-PAGE: 0.9 ng/mL

B6: pCART202 (enzyme)
chain: MDDYQRNATEAYAKEVPHQITSVWTKGVTPLTPEQFTQGEDVIHAPYLAHQGWYDITKAFDGKDNLLCGAATAGNMLHWWFDQNKTEIEAYLSKHPEKQKIIFNNQELFDLKAAIDTKDSQTNSQLFNYFRDKAFPNLSARQLGVMPDLVLDMFINGYYLNVFKTQSTDVNRPYQDKDKRGGIFDAVFTRGDQTTLLTARHDLKNKGLNDISTIIKQELTEGRALALSHTYANVSISHVINLWGADFNAEGNLEAIYVTDSDANASIGMKKYFVGINAHGHVAISAKKIEGENIGAQVLGLFTLSSGKDIWQKLSGGGHHHHHH
enzyme concentration giving an intense scIgG band on SDS-PAGE: 0.94 ng/mL
